Data from patent US20130142799A1 (Amgen, published 2013).

Target: T1, Tie2-Fc (human, UniProt Q02763 23-748)
T1 construct: extracellular domain; Bought reagent; Allophycocyanin-conjugated in the HTRF assay; also called hTie2-Fc; human Tie2-Fc; not shown: Fc portion of the bought Tie2-Fc
Assay: ELISA at one concentration on conditioned medium with N-terminal hAng-2 (aa 1-254, 6xHis); O.D. 370; control pCDNA3 vector medium
Protocol: The binding epitope of anti-Ang-2 antibodies and peptibodies was determined by their ability to bind the three versions of human hAng-2 by ELISA according to the following protocol: a high-binding 96-well assay plate was coated with 100 μl of conditioned media per well, and incubated at 37° C. for 1 hour. Conditioned media was aspirated, and the plate was blocked with 200 μl per well of 5% BSA in PBS at room temperature for 1 hour. The blocking solution was then aspirated. […] The wells were washed 4 times with 200 μl of 0.1% Tween in PBS. 100 μl per well of HRP-conjugated goat anti-human IgG or goat anti-mouse IgG were added, and incubated at room temperature for 45 minutes. The wells were then washed with 200 μl of 0.1% Tween in PBS 4 times. 100 μl per well of TMB substrate was then added. O.D. was read at 370 nm.

T1 sequence (Q02763 23-748): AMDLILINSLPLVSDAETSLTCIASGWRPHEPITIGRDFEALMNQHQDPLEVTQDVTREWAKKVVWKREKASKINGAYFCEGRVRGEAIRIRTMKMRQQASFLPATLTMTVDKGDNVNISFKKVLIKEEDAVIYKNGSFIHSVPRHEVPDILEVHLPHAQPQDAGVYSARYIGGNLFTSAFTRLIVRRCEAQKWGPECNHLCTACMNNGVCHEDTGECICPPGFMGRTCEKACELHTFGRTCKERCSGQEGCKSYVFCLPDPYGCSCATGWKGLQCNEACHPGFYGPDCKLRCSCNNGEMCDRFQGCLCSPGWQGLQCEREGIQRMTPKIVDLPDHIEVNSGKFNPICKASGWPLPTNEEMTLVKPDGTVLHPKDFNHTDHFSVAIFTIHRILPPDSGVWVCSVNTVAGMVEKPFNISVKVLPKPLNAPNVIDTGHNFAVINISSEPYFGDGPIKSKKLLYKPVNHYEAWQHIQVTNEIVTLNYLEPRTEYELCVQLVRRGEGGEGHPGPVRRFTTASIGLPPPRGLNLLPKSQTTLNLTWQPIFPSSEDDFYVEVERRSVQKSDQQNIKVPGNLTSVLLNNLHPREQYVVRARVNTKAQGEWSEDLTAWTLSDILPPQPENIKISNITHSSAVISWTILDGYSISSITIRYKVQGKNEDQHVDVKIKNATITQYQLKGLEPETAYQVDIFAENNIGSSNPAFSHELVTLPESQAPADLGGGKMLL

B1: N-term hAng2 (aa 1-254) (ligand)
chain: YNNFRKSMDSIGKKQYQVQHGSCSYTFLLPEMDNCRSSSSPYVSNAVQRDAPLEYDDSVQRLQVLENIMENNTQWLMKLENYIQDNMKKEMVEIQQNAVQNQTAVMIEIGTNLLNQTAEQTRKLTDVEAQVLNQTTRLELQLLEHSLSTNKLEKQILDQTSEINKLQDKNSFLEKKVLAMEDKHIIQLQSIKEEKDQLQVLVSKQNSIIEELEKKIVTATVNNSVLQKQQHDLMETHHHHHH
notes: also called N-terminal human Ang-2
  binding result: no binding (tested: 1 µg/ml)
